Source: patent US20190330357A1 (Bayer, published 2019)

T1: IL-3Rα, CD123 (interleukin 3 receptor subunit alpha) as expressed on CD123-positive human cancer cell lines … (human, UniProt P26951 20-378)
T1 construct: Target of the flow cytometry on the human cell line MOLM-13 (CD123-positive); NCBI Gene ID 3563; also called IL3RA; IL3R-alpha
T1 sequence: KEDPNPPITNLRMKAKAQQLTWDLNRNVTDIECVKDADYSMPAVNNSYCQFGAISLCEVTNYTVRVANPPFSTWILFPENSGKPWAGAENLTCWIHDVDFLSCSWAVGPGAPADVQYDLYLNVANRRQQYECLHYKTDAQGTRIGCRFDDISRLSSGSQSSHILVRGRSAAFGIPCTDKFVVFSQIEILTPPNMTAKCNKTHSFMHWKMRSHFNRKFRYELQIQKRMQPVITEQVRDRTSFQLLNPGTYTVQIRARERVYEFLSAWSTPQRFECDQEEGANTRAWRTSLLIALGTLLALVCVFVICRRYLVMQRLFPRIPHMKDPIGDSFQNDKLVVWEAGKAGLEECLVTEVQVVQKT

T2: TPP-5521, recombinant IL3Ra aa20-305 (extracellular domain of IL3Ra, R&D Systems) (murine (printed under Origin in Table …, UniProt P26951 20-305))
T2 construct: Bought antigen; also called soluble IL3Ralpha; IL3Ra protein
T2 sequence: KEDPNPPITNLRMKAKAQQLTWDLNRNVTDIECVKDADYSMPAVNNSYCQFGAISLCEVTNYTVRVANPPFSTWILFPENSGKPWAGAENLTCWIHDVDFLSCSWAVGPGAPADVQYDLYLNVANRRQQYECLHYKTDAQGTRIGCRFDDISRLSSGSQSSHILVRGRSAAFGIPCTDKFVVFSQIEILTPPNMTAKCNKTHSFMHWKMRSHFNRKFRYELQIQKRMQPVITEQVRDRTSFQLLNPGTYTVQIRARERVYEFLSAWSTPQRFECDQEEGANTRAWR


Experiments:
[1] = target: T1, IL-3Rα, CD123 (interleukin 3 receptor …); experiment: flow cytometry on MOLM-13 cells, anti-kappa-FITC secondary antibody
Method: (§1) Binding of the anti-CD123 antibodies was examined by flow cytometry using human haematological cell line MOLM-13. To this end, the cells (5×10⁵ cells/well) were incubated in FACS buffer (PBS without Ca/Mg, 3% FCS, Biochrom) with 10 μg/ml primary antibody solution (start concentration) on ice for 30-45 min protected from light. A dose activity curve (1:5 dilution) was plotted. After the incubation, 200 μl of ice-cold FACS buffer were added using a pipette, and the cell suspension was centrifuged at 4° C. 400 g for 4 min. The cell pellet was washed with 300 μl of ice-cold FACS buffer and the pellet obtained was then resuspended in 100 μl FACS buffer and incubated again with secondary antibody (monoclonal anti-kappa light chains-FITC antibody, Sigma, No. SAB4700605) in a 1:10 dilution on ice for 30 min. The cells were then washed with ice-cold FACS buffer and adjusted to a cell concentration of 0.5×10⁶ cell/m1 prior to flow cytometry using a Guava flow cytometer (Millipore). Propidium iodide (final concentration 1 μg/ml) was used for live staining. The results were shown as EC₅₀ values determined based on the dose response curve and efficacy compared to maximal binding.

[2] = target: T2, TPP-5521, recombinant IL3Ra aa20-305 …; experiment: SPR (Biacore T200), antibody captured by anti-human Fc, IL3Ra ECD as analyte, 1:1 Langmuir fit, 25 °C
Method: Surface plasmon resonance experiments for quantitative binding analysis were carried out using a Biacore T200 instrument (GE Healthcare Biacore, Inc.). Here the antibodies to be examined were fixed with the aid of an anti-human Fc antibody (“Human Antibody Capture Kit”, BR-1008-39, GE Healthcare Biacore, Inc.) amine-coupled to the sensor chip surface Amine coupling was performed according to the manufacturer's instructions using 1-ethyl-3-(3-dimethylaminopropyl)carbodiimide hydrochloride (EDC), N-hydroxysuccinimide (NHS) and ethanolamine HCl pH 8.5 (“Amine Coupling Kit” BR-1000-50, GE Healthcare Biacore, Inc.). For the analyses, Series S sensor chips CMS (GE Healthcare Biacore, Inc.) were used with the mobile buffer HBS-EP+ (10 mM HEPES pH 7.4, 150 mM NaCl, 3 mM EDTA, 0.05% Surfactant P20). All experimental steps were carried out at 25° C. After fixation of the anti-CD123 antibodies to be examined, injections of the extracellular domain of IL3Ra (analyte, R&D Systems) at concentrations of 100 nM were carried out, and after each antigen injection the sensor surface was regenerated with glycine HCl pH 2.0. Prior to another analyte injection, antibodies were in each case fixed as above, under identical conditions. For all measurements, an upstream flow cell only containing immobilized amine-coupled anti-human Fc antibody was used as reference cell. Evaluation of the sensorgrams obtained was, after double referencing (subtraction of the reference flow cell signal and a buffer injection), carried out by a global fit based on a 1:1 Langmuir binding model with the aid of the Biacore T200 evaluation software (GE Healthcare Biacore, Inc.).

[3] = target: T1, IL-3Rα, CD123 (interleukin 3 receptor …); experiment: flow cytometry on MOLM-13 cells
Method: as §1

Row | Binder | EC50 [1] | Efficacy [%] (compared to maximal binding) [1] | Kd [2] | binding result [3]
1 | TPP-8988 (antibody, human IgG1, kappa, V domains shown, Humanized variant of 12F1 (IGKV3-20 / IGHV3-66 frameworks), human IgG1 kappa) VH: EVQLLESGGGLVQPGGSLRLSCAVSDYSITSGYYWNWIRQAPGKKLEWMGYISYDGSNNYNPSLKNGRITISRDTSKNTFYLQMNSLRAEDTAVYYCARGEGFYFDSWGQGTLVTVSS VL: EIVLTQSPGTLSLSPGERATLSCKSSQSLFFGSTQKNYLAWYQQKPGQAPRLLIYWASTRESGIPDRFSGSGSGTDFTLTISRLEPEDFAVYYCQQYYNYPWTFGQGTKLEIKR | 1.9 nM | 100% | 0.33 nM | 
2 | TPP-9129 (antibody, human IgG1, kappa, V domains shown) VH: EVQLLESGGGLVQPGGSLRLSCAVSDYSITSGYYWNWIRQAPGKKLEWMGYISYDGSNNYNPSLKNGRITISRDTSKNTFYLQMNSLRAEDTAVYYCARGEGFYFDSWGQGTLVTVSS VL: EIVLTQSPGTLSLSPGERATLSCRASQSVSSSYLAWYQQKPGQAPRLLIYWASTRESGIPDRFSGSGSGTDFTLTISRLEPEDFAVYYCQQYYNYPWTFGQGTKLEIKR |  |  |  | no binding (tested: 10 µg/ml (start concentration))
3 | TPP-9130 (antibody, human IgG1, kappa, V domains shown) VH: EVQLLESGGGLVQPGGSLRLSCAVSDYSITSGYYWNWIRQAPGKKLEWMGYISYDGSNNYNPSLKNGRITISRDTSKNTFYLQMNSLRAEDTAVYYCARGEGFYFDSWGQGTLVTVSS VL: EIVLTQSPGTLSLSPGERATLSCKSSQSLFFGSTQKNYLAWYQQKPGQAPRLLIYGASSRATGIPDRFSGSGSGTDFTLTISRLEPEDFAVYYCQQYYNYPWTFGQGTKLEIKR | 3.01 nM | 100% |  | 
4 | TPP-9078 (antibody, human IgG1, kappa, V domains shown) VH: EVQLLESGGGLVQPGGSLRLSCAVSDYSITSGYYWNWIRQAPGKKLEWVGYISYDGSNNYNPSLKNGRITISRDTSKNTFYLQMNSLRAEDTAVYYCARGEGFYFDSWGQGTLVTVSS VL: EIVLTQSPGTLSLSPGERATLSCKSSQSLFFGSTQKNYLAWYQQKPGQAPRLLIYWASTRESGIPDRFSGSGSGTDFTLTISRLEPEDFAVYYCQQYYNYPWTFGQGTKLEIKR |  |  |  | no binding (tested: 10 µg/ml (start concentration))
5 | TPP-9075 (antibody, human IgG1, kappa, V domains shown) VH: EVQLLESGGGLVQPGGSLRLSCAVSDYSITSGYYSNWIRQAPGKKLEWMGYISYDGSNNYNPSLKNGRITISRDTSKNTFYLQMNSLRAEDTAVYYCARGEGFYFDSWGQGTLVTVSS VL: EIVLTQSPGTLSLSPGERATLSCKSSQSLFFGSTQKNYLAWYQQKPGQAPRLLIYWASTRESGIPDRFSGSGSGTDFTLTISRLEPEDFAVYYCQQYYNYPWTFGQGTKLEIKR | 5.37 nM | 100% |  | 
6 | TPP-9104 (antibody, human IgG1, kappa, V domains shown) VH: EVQLLESGGGLVQPGGSLRLSCAVSDYSITSNYYWNWIRQAPGKKLEWMGYISYDGSNNYNPSLKNGRITISRDTSKNTFYLQMNSLRAEDTAVYYCARGEGFYFDSWGQGTLVTVSS VL: EIVLTQSPGTLSLSPGERATLSCKSSQSLFFGSTQKNYLAWYQQKPGQAPRLLIYWASTRESGIPDRFSGSGSGTDFTLTISRLEPEDFAVYYCQQYYNYPWTFGQGTKLEIKR | 25.3 nM | 83% |  | 
7 | TPP-6013 (antibody, human IgG1, kappa, V domains shown, Chimeric antibody: murine 12F1 variable domains with human IgG1 kappa constant regions; also called antiCD123-12F1-hIgG1Kappa; chimeric variant of 12F1) VH: QVQLQESGPGLVKPSQSLSLTCSVTDYSITSGYYWNWIRQFPGNKLEWMGYISYDGSNNYNPSLKNRISITRDTSKNQFFLKLSSVTTEDTATYYCSRGEGFYFDSWGQGTTLTVSS VL: DIMMSQSPSSLAVSVGEKFTMTCKSSQSLFFGSTQKNYLAWYQQKPGQSPKLLIYWASTRESGVPDRFTGSGSGTDFTLAISSVMPEDLAVYYCQQYYNYPWTFGGGTKLEIKR | 2 nM | 100% | 0.8 nM | 
8 | TPP-8617 (antibody, human IgG1, kappa, V domains shown, Humanized 12F1 graft on IGKV4-1 / IGHV5-51; also called Hum-TPP6013-17) VH: EVQLVQSGAEVKKPGESLKISCKGSDYSITSGYYWNWVRQMPGKGLEWMGYISYDGSNNYNPSLKNGQVTISADKSISTAYLQWSSLKASDTAMYYCSRGEGFYFDSWGQGTLVTVSS VL: DIMMSQSPSSLAVSVGEKFTMTCKSSQSLFFGSTQKNYLAWYQQKPGQSPKLLIYWASTRESGVPDRFTGSGSGTDFTLAISSVMPEDLAVYYCQQYYNYPWTFGGGTKLEIKR | 1.4 nM | 100% |  | 
9 | TPP-5969 (antibody, human IgG1, kappa, V domains shown, Humanized version of murine 7G3, human IgG1 kappa; also called HU7G3-4-hIgG1Kappa) VH: QVQLVQSGAEVKKPGSSVKVSCKASGGTFSDYYMKWVRQAPGQGLEWMGDIIPSNGATFYAQKFQGRVTITADESTSTAYMELSSLRSEDTAVYYCARSHLLRASWFAYWGQGTLVTVSS VL: DIVMTQSPDSLAVSLGERATINCESSQSLLNSGNQKNYLTWYQQKPGQPPKLLIYWASTRESGVPDRFSGSGSGTDFTLTISSLQAEDVAVYYCQNDYSYPYTFGQGTKLEIKR | 5.3 nM | 34% |  | 
10 | TPP-8987 (antibody, human IgG1, kappa, V domains shown, Humanized and germlined variant of 7G3, human IgG1 kappa) VH: QVQLVQSGAEVKKPGSSVKVSCKASGGTFSDYYMKWVRQAPGQGLEWMGDIIPSNGATFYNQKFKGQVTITADESTSTAYMELSSLRSEDTAVYYCARSHLLRASWFAYWGQGTLVTVSS VL: DIVMTQSPDSLAVSLGERATINCESSQSVLNSGNQKNYLTWYQQKPGQPPKLLIYWASTRESGVPDRFSGSGSGTDFTLTISSLQAEDVAVYYCQNDYSYPYTFGQGTKLEIKR | 3.2 nM | 100% | 1.24 nM | 
11 | TPP-9476 (antibody, human IgG1, kappa, V domains shown, Humanized and germlined variant of 7G3, human IgG1 kappa) VH: QVQLVQSGAEVKKPGSSVKVSCKASGGTFSDYYMKWVRQAPGQGLEWMGDIIPSNGATFYNQKFKGRVTITADESTSTAYMELSSLRSEDTAVYYCARSHLLRASWFAYWGQGTLVTVSS VL: DIVMTQSPDSLAVSLGERATINCESSQSVLNSGNQKNYLTWYQQKPGQPPKLLIYWASTRESGVPDRFSGSGSGTDFTLTISSLQAEDVAVYYCQNDYSYPYTFGQGTKLEIKR | 2.8 nM | 100% | 7.2 nM | 
12 | TPP-8695 (antibody, human IgG1, kappa, V domains shown, also called Variant4-hIgG1kappa) VH: QVQLVQSGAEVKKPGSSVKVSCKASGGTFSDYYMKWVRQAPGQGLEWMGDIIPSNGATFYNQKFKGQVTITADESTSTAYMELSSLRSEDTAVYYCARSHLLRASWFAYWGQGTLVTVSS VL: DIVMTQSPDSLAVSLGERATINCESSQSLLNSGNQKNYLTWYQQKPGQPPKLLIYWASTRESGVPDRFSGSGSGTDFTLTISSLQAEDVAVYYCQNDYSYPYTFGQGTKLEIKR | 1.12 nM | 36% |  | 
